Laboratory results published in publication PMC9381132 (Molecular Cancer Therapeutics, 2022).
Read-outs that look alike come from different tables or passages of the source.

Legend:
[1] = biological target: T1, untagged human LY6G6D extracellular domain (construct used for structural studies) (human); assay: SEC-MALS
T1 chain: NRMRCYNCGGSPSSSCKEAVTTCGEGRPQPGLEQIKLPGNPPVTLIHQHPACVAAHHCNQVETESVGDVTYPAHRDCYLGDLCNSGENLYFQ

[2] = biological target: T2, human LY6G6D (recombinant protein of the BIAcore kinetics and of the epitope binning) (Homo sapiens, UniProt O95868); assay: SPR
[3] = biological target: T2, human LY6G6D (recombinant protein of …); assay: SPR; remark: listed apart in the source

B1: 1G4 Fab (Fab, V domains shown)
VH: EVQLQQSGPELVKPGASVKMSCKASGYTFTTYVMHWVQQKPGQGLEWIGYINPYNDGTKYNEKFKGKATLTSDTSSSTAYMELSSLTSDDSAVYYCGRRNFDYWGQGTLVTVSS
VL: DILMTQSPSSLTVSAGEKVTMSCKSSQSLLLSGNQENYLAWHQQKPGRSPKTLITWASTRISGVSDRFIGSGSGTDFTLTINSVQAEDLAVYYCQQSYSAPYTFGQGTKVEIK
B1 was tested, and the “stoichiometry N” value [1] was 1 and the binding result [2] was “binds”.

B2: anti-LY6G6D murine mAb clone 1G4 (antibody, V domains shown)
VH: EVQLQQSGPELVKPGASVKMSCKASGYTFTTYVMHWVQQKPGQGLEWIGYINPYNDGTKYNEKFKGKATLTSDTSSSTAYMELSSLTSDDSAVYYCGRRNFDYWGQGTLVTVSS
VL: DILMTQSPSSLTVSAGEKVTMSCKSSQSLLLSGNQENYLAWHQQKPGRSPKTLITWASTRISGVSDRFIGSGSGTDFTLTINSVQAEDLAVYYCQQSYSAPYTFGQGTKVEIK
B2: binds [3].
